From patent US20130059806A1 (REGENTS OF THE UNIVERSITY OF MICHIGAN, published 2013) come the findings set out here.

Sequences and labels used below:
B1: transcriptional intermediary factor (TIF)-1beta (other, mouse, UniProt Q62318 2-834, looked up)
chain: AASAAATAAASAATAASAASGSPGSGEGSAGGEKRPAASSAAAASAAASSPAGGGGEAQELLEHCGVCRERLRPERDPRLLPCLHSACSACLGPATPAAANNSGDGGSAGDGAMVDCPVCKQQCYSKDIVENYFMRDSGSKASSDSQDANQCCTSCEDNAPATSYCVECSEPLCETCVEAHQRVKYTKDHTVRSTGPAKTRDGERTVYCNVHKHEPLVLFCESCDTLTCRDCQLNAHKDHQYQFLEDAVRNQRKLLASLVKRLGDKHATLQKNTKEVRSSIRQVSDVQKRVQVDVKMAILQIMKELNKRGRVLVNDAQKVTEGQQERLERQHWTMTKIQKHQEHILRFASWALESDNNTALLLSKKLIYFQLHRALKMIVDPVEPHGEMKFQWDLNAWTKSAEAFGKIVAERPGTNSTGPGPMAPPRAPGPLSKQGSGSSQPMEVQEGYGFGSDDPYSSAEPHVSGMKRSRSGEGEVSGLLRKVPRVSLERLDLDLTSDSQPPVFKVFPGSTTEDYNLIVIERGAAAAAAGQAGTVPPGAPGAPPLPGMAIVKEEETEAAIGAPPAAPEGPETKPVLMPLTEGPGAEGPRLASPSGSTSSGLEVVAPEVTSAPVSGPGILDDSATICRVCQKPGDLVMCNQCEFCFHLDCHLPALQDVPGEEWSCSLCHVLPDLKEEDGSLSLDGADSTGVVAKLSPANQRKCERVLLALFCHEPCRPLHQLATDSTFSMEQPGGTLDLTLIRARLQEKLSPPYSSPQEFAQDVGRMFKQFNKLTEDKADVQSIIGLQRFFETRMNDAFGDTKFSAVLVEPPPLNLPSAGLSSQELSGPGDGP
notes: also called TIF1β; TIF113
B4: MTA1 (other, mouse, UniProt Q8K4B0 1-715, looked up)
chain: MAANMYRVGDYVYFENSSSNPYLIRRIEELNKTANGNVEAKVVCFYRRRDISSSLIALADKHATLSVCYRAGPGADTGEEGEVEEEVENPEMVDLPEKLKHQLRHRELFLSRQLESLPATHIRGKCSVTLLNETESLKSYLEREDFFFYSLVYDPQQKTLLADKGEIRVGNRYQADITDLLKEGEEDGRDQSKLETKVWEAHNPLVDKQIDQFLVVARSVGTFARALDCSSSVRQPSLHMSAAAASRDITLFHAMDTLHKNIYDISKAISALVPQGGPVLCRDEMEEWSASEANLFEEALEKYGKDFTDIQQDFLPWKSLTSIIEYYYMWKTTDRYVQQKRLKAAEAESKLKQVYIPNYNKPNPNQISASSVKATVVNGTGTPGQSPGAGRACESCYTTQSYQWYSWGPPNMQCRLCASCWTYWKKYGGLKMPTRLDGERPGPNRNNMSPHGIPARSSGSPKFAMKTRQAFYLHTTKLTRIARRLCREILRPWHAARHPYMPINSAAIKAECTARLPEASQSPLVLKQVVRKPLEAVLRYLETHPRPPKPDPVKSSSSVLSSLTPAKSAPVINNGSPTILGKRSYEQHNGVDGNMKKRLLMPSRGLANHGQTRHMGPSRNLLLNGKSYPTKVRLIRGGSLPPVKRRRMNWIDAPDDVFYMATEETRKIRKLLSSSETKRAARRPYKPIALRQSQALPLRPPPPAPVNDEPIVIED
notes: also called MTA1/2 (with MTA2)
B5: MTA2 (other, mouse, UniProt Q9R190 1-668, looked up)
chain: MAANMYRVGDYVYFENSSSNPYLVRRIEELNKTANGNVEAKVVCLFRRRDISSSLNSLADSNAREFEEESKQPGVSEQQRHQLKHRELFLSRQFESLPATHIRGKCSVTLLNETDILNQYLDKEDCFFYSLVFDPVQKTLLADQGEIRVGCKFQAEIPDRLAEGESDNRNQQKMEMKVWDPDNPLTDRQIDQFLVVARAVGTFARALDCSSSIRQPSLHMSAAAASRDITLFHAMDTLQRNGYDLAKAMSTLVPQGGPVLCRDEMEEWSASEAMLFEEALEKYGKDFNDIRQDFLPWKSLASIVQFYYMWKTTDRYIQQKRLKAAEADSKLKQVYIPTYTKPNPNQIISVGSKPGMNGAGFQKGLTCESCHTTQSAQWYAWGPPNMQCRLCASCWIYWKKYGGLKTPTQLEGAARGTTEPHSRGHLSRPEAQSLSPYTTSANRAKLLAKNRQTFLLQTTKLTRLARRMCRDLLQPRRAARRPYAPINANAIKAECSIRLPKAAKTPLKIHPLVRLPLATIVKDLVAQAPLKPKTPRGTKTPINRNQLTQNRGLGGIMVKRSYETMAGAGVPFSANGRPLASGIRSSSQPAAKRQKLNPADAPNPVVFVATKDTRALRKALTHLEMRRAARRPNLPLKVKPTLMTVRPPVPLPASSHPASTNEPIVLED
notes: also called MTA1/2 (with MTA1)

One test addresses T1, Mi2β (mouse, UniProt Q6PDQ2 1-1915).
T1 construct: also called Mi2beta; Mi213
Briefly: co-IP from untransfected MEL nuclear extract, immunoblot. (In western blotting, separated proteins are transferred to a membrane and probed.)

Another test has as its target T2, TR4 (mouse, UniProt P49117 1-596).
T2 construct: Endogenous protein, immunoprecipitated or detected with a rabbit polyclonal antibody; also called NR2C2
T2 sequence (looked up): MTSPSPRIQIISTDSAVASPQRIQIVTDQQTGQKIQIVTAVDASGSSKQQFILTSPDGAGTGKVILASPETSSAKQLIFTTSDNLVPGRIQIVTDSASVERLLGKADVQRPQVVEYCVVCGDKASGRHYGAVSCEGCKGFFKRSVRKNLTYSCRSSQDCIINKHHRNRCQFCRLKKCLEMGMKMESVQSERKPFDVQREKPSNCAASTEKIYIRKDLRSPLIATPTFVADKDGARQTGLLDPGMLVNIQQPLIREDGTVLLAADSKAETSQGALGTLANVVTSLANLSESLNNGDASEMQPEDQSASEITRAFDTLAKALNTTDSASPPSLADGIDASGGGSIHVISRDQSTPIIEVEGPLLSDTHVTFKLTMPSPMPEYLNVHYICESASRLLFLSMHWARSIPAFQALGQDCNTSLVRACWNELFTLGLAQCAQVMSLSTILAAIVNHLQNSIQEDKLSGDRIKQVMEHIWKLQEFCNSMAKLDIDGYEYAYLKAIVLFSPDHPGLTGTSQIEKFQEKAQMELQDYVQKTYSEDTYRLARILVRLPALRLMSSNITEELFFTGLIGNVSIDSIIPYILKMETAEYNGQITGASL
Description: co-IP from untransfected MEL nuclear extract, immunoblot (summary).

The target of test [1] is B1. Description: co-IP from untransfected MEL nuclear extract, immunoblot.
The test “MTA2” has as its target B5. The description is as above.
A further test concerns the target CoREST (mouse, UniProt Q8CFE3 1-480). The test is described as above.
For the test “MTA1”, the target named is B4. Described as above.

T1 sequence (Q6PDQ2 whole entry): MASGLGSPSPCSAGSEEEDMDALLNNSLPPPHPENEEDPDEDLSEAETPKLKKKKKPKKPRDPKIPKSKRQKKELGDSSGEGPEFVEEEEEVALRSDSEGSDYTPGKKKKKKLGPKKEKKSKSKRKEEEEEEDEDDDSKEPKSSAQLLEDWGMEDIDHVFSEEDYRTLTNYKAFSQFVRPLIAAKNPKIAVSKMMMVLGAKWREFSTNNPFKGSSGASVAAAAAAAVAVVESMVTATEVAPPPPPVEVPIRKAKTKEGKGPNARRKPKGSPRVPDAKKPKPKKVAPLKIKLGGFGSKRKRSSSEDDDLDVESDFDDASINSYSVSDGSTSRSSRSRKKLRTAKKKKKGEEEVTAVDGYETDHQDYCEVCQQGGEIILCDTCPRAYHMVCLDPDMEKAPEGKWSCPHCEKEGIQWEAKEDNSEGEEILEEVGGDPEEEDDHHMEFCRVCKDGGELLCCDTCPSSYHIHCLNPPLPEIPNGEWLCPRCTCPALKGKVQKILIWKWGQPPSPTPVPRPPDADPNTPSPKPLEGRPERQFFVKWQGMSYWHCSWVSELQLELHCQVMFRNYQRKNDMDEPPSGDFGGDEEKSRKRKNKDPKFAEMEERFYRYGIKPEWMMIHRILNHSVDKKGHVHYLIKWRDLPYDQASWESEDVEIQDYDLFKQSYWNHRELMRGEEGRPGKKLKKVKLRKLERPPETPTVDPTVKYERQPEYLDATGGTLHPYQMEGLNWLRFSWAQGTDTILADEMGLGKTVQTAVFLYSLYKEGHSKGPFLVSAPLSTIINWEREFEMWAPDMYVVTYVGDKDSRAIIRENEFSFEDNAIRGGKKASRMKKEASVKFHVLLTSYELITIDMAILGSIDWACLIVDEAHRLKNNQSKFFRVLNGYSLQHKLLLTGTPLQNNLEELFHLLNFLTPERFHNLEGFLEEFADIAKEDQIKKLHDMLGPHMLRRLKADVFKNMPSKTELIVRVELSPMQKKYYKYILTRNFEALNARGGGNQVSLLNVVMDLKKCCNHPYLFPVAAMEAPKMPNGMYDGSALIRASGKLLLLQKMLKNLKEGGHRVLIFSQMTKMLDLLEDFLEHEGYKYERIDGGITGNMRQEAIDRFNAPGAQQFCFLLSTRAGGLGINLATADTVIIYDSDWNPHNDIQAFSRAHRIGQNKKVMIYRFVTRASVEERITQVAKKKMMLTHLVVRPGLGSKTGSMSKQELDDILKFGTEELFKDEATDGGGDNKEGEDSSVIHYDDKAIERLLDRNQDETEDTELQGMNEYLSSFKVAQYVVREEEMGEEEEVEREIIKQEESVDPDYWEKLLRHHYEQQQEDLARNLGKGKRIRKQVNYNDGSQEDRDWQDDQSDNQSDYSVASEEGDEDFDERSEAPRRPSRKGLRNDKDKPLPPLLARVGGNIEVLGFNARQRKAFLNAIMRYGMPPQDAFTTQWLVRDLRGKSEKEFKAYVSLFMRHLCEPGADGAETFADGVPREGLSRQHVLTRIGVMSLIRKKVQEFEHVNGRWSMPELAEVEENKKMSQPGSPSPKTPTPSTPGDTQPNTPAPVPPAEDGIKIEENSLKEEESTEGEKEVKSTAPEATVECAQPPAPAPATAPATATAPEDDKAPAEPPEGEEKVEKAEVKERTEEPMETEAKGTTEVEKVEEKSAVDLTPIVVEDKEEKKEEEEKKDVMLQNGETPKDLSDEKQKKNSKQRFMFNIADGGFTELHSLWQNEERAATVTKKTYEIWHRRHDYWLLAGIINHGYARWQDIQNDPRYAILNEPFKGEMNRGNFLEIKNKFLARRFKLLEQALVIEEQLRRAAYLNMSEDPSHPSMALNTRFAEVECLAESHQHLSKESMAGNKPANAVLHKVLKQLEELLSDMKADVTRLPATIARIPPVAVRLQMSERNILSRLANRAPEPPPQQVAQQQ
Sequence of CoREST (Q8CFE3 whole entry): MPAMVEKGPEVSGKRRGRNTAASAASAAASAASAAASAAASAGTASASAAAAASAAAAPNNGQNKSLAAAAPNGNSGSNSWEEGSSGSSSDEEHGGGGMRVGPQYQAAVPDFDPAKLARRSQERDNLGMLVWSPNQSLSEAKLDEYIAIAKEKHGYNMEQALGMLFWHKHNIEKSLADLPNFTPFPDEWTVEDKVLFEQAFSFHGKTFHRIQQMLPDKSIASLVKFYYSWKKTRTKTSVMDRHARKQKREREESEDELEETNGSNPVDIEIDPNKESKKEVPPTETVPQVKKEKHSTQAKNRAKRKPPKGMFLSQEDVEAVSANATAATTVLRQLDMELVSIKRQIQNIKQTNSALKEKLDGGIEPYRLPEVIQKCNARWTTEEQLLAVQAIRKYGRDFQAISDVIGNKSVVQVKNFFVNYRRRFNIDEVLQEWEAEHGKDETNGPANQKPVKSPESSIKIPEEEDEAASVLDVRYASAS
Description for TR4: Nuclear extracts were prepared from untransfected, induced MEL cells and incubated with protein G beads coupled with antibodies against proteins shown at the top of the images, or with a control IgG; 150 μg of nuclear extract protein was used for each lane. Immunoprecipitates with the antibody-coupled beads, and 10% of the input (15 μg protein) were subjected to SDS-PAGE followed by immunoblotting with antibodies against proteins shown to the left of the images. For immunoprecipitation, antibodies against TR2, TR4, DNMT1, HDAC3, and TIF113 were used in the left panels.
Antibodies were coupled to Dynabeads protein G (Invitrogen) by incubating for 2 hr at 4° C. with rotation according to the manufacturer's instructions. The beads were then incubated with nuclear extracts (150 μg protein) prepared from untransfected MEL cells for 2 hr at 4° C. After washing the beads with ice-cold phosphate buffered saline (PBS) three times, immunoprecipitated proteins were eluted by boiling in 1× Laemmli sample buffer and then subjected to immunoblotting.

Turning to B1, the binding result with Mi2β was “no binding”.

B2: TR2 (receptor, mouse, UniProt Q505F1 1-590, looked up)
chain: MATIEEIAHQIIDQQMGEIVTEQQTGQKIQIVTALDHSTQGKQFILANHEGSTPGKVFLTTPDAAGVNQLFFTSPDLSAPHLQLLTEKSPDQGPNKVFDLCVVCGDKASGRHYGAITCEGCKGFFKRSIRKNLVYSCRGSKDCVINKHHRNRCQYCRLQRCIAFGMKQDSVQCERKPIEVSREKSSNCAASTEKIYIRKDLRSPLAATPTFVTDSETARSAGLLDSGMFVNIHPSGIKTEPAMLMAPDKAESCQGDLSTLASVVTSLANLGKAKDLSHCGGDMPVVQSLRNGDTSFGAFHHDIQTNGDVSRAFDTLAKALTPGESSACQSPEEGMEGSPHLIAGEPSFVEKEGPLLSESHVAFRLTMPSPMPEYLNVHYIGESASRLLFLSMHWALSIPSFQALGQENSISLVKAYWNELFTLGLAQCWQVMNVATILATFVNCLHSSLQQDKMSPERRKSLMEHIFKLQEFCNSMVKLCIDGHEYAYLKAIVLFSPDHPGLENMELIERFQEKAYVEFQDYITRTYPDDTYRLSRLLLRLPALRLMNATITEELFFKGLIGNVRIDSVIPHILKMEPADYNSQIIGHSL
notes: Endogenous protein, immunoprecipitated or detected with a rabbit polyclonal antibody; also called NR2C1
Regarding B2, the binding result with TR4 is listed as “binds”.

B3: HDAC3 (enzyme, mouse, UniProt O88895 1-428, looked up)
chain: MAKTVAYFYDPDVGNFHYGAGHPMKPHRLALTHSLVLHYGLYKKMIVFKPYQASQHDMCRFHSEDYIDFLQRVSPTNMQGFTKSLNAFNVGDDCPVFPGLFEFCSRYTGASLQGATQLNNKICDIAINWAGGLHHAKKFEASGFCYVNDIVIGILELLKYHPRVLYIDIDIHHGDGVQEAFYLTDRVMTVSFHKYGNYFFPGTGDMYEVGAESGRYYCLNVPLRDGIDDQSYKHLFQPVISQVVDFYQPTCIVLQCGADSLGCDRLGCFNLSIRGHGECVEYVKSFNIPLLVLGGGGYTVRNVARCWTYETSLLVEEAISEELPYSEYFEYFAPDFTLHPDVSTRIENQNSRQYLDQIRQTIFENLKMLNHAPSVQIHDVPADLLTYDRTDEADAEERGPEENYSRPEAPNEFYDGDHDNDKESDVEI
As to B3, the binding result (in test [1]; with MTA2; with Mi2β; with CoREST; with MTA1) was “no binding” throughout.

For the molecule B4, the binding result in test [1] was “no binding”.

Turning to B5, the binding result in test [1] is reported as “no binding”.
